The source of these data is patent publication US20210113652A1, “MASPIN-BASED INHIBITION OF OSTEOCLAST ACTIVITY AND PROMOTION OF BONE FORMATION” (Northwestern University, priority 2016, published 2021).

The test system of one series is RAW246.7 cells. Description: Differentiation assay of pre-osteoclastic RAW246.7 cells under RANKL (TRAP staining). The following applies: maspin 0.1-10 ug/ml; RANKL 50-100 ng/ml; 8 days. The format is cell-based. As for the experimental part:
FIG. 3. […] RAW246.7 cells were treated with RANKL (50 -100 ng/ml) and different doses of maspin for 8 days, and cell cultures were used for TRAP staining.

For series [1] the following is noted: overexpression of maspin in vivo; cited from earlier work.
Series [2] can be described thus: Long-term treatment with maspin in animals. The format is in vivo. The source says: Because bone is tissue under constant balancing actions between bone-degrading osteoclasts and bone-forming osteoblasts, inhibiting the formation and activity of osteoclasts will favor or promote osteoblastic activity, thereby promoting new bone formation and bone wound healing. Further, maspin is naturally produced by osteoblasts in the bone microenvironment. This represents a previously unappreciated and unexploited mechanism for osteoblast-produced maspin counteracting the effect of osteclastic activity. […] Therefore, maspin may be delivered to human patients as a non-toxic therapeutic product against various bone diseases.

In a further series the test system is calvariae. Description: New bone formation in ex vivo calvariae organ culture model. Further details: species or system BABL/c new-born mice. The following applies: 7 days organ culture. The text has this: FIG. 7. […] Panel A, calvariae were removed from 4 days-old BABL/c new-born mice and cultured in an ex vivo organ culture medium. They were either treated with or without concentrated conditional medium from mouse mammary tumor TM40D cells or maspin-expressing TM40D-Mp cells or with recombinant maspin (GST-Mp) with or without an anti-maspin antibody for 7 days. H&E staining of representative images were shown. Arrows indicate osteoblast cells. Arrowhead indicates new bone area. Panel B, quantitation of the average number of osteoblasts under different treatments listed in Panel A.

Series [3] relates to primary bone marrow cells. Description: Osteoclastogenesis in mouse primary bone marrow co-culture assay (TRAP staining). The format is cell-based. As to conditions: bone marrow cells co-cultured with TM40D-Mp vs TM40D cells; TRAP-positive cells with 2 or more nuclei. The source says:
FIG. 2. […] Osteoclastogenesis analyses of primary bone marrow cells co-cultured with breast cancer cells with or without maspin expression. (Panel A) Newly isolated primary bone marrow cells only (control). (Panel B) Bone marrow cells co-cultured with mammary tumor TM40D cells. (Panel C) Bone marrow cells co-cultured with maspin-expressing TM40D-Mp cells. (Panel D) Bone marrow cells co-cultured with TM40D-Mp cells and rabbit anti-maspin antibody. (Panel E) Bone marrow cells co-cultured with TM40D-Mp cells and rabbit IgG. (F) Summary of percentage of osteoclasts in co-cultured cells analyzed by TRAP staining. TRAP-positive cells containing 2 or more nuclei are defined as osteoclasts.

For series [4], the system named is mouse tibiae inoculated with mammary tumor cells TM40D or maspin-expressing TM40D-Mp. The series can be described thus: Osteolytic bone degradation in tumor-inoculated BALB/c mice (X-ray, H&E, TRAP staining of tibiae). It counts as in vivo. The text has this:
FIG. 1. […] Panel A-B: Representative X-ray radiographs of mouse tibiae inoculated with mammary tumor cells TM40D (Panel A) or maspin-expressing TM40D-Mp tumor cells (Panel B), at the end point of 4 weeks following tumor inoculation. Note that mice inoculated with TM40D tumors display severe osteolytic lesion comparing to that with TM40D-Mp cells. Panel E: Summary of osteolytic lesion data (radiography analysis) in 20 mice (10 mice/group) at 2-week and 4-week time points. Panel C: Histological analysis of bone section of tumor-inoculated tibiae by H&E staining. Arrow heads indicate osteoclastic cells. Panel D: TRAP (tartrate-resistant acid phosphatase) staining of osteoclastic cells in bone sections. Arrows indicate osteoclastic cells. Panel F: Summary of TRAP staining data of osteoclasts in mouse tibiae inoculated with TM40D or TM40D-Mp cells.

Series [5] relates to mature osteoclasts from RAW246.7. Description: Osteoclast actin ring formation (phalloidin staining). It counts as cell-based. The following applies: RANKL 50 ng/ml pre-culture 8 days; 2 hours at 37° C. As for the experimental part: FIG. 6. Panels A-C: Maspin inhibits osteoclast actin ring formation. Osteoclasts display osteolytic activity by forming actin rings. RAW246.7 were pre-cultured with RANKL (50 ng/ml) for 8 days to form mature osteoclasts. Cells were first washed with cold PBS twice to disrupt actin rings, warm medium with RANKL were added to cell culture with or without Gst or GST-maspin and cells were then cultured for 2 hours at 37° C. Cells were then washed and stained with phalloidin for actin ring formation. Cells with strong and clear actin ring belts were counted as positive. Five fields of cell staining were counted for each sample and experiments repeated three times. The percentage of cells forming strong and clear actin rings was calculated.

B1: Maspin: Maspin (mammary serine protease inhibitor), a serpin protein encoded by the SERPINB5 gene; human wild-type is SEQ ID NO: 1 (protein, listed as Homo sapiens)
chain: MDALQLANSAFAVDLFKQLCEKEPLGNVLFSPICLSTSLSLAQVGAKGDTANEIGQVLHFENVKDIPFGFQTVTSDVNKLSSFYSLKLIKRLYVDKSLNLSTEFISSTKRPYAKELETVDFKDKLEETKGQINNSIKDLTDGHFENILADNSVNDQTKILVVNAAYFVGKWMKKFPESETKECPFRLNKTDTKPVQMMNMEATFCMGNIDSINCKIIELPFQNKHLSMFILLPKDVEDESTGLEKIEKQLNSESLSQWTNPSTMANAKVKLSIPKFKVEKMIDPKACLENLGLKHIFSEDTSDFSGMSETKGVALSNVIHKVCLEITEDGGDSIEVPGARILQHKDELNADHPFIYIIRHNKTRNIIFFGKFCSP
Regarding B1, the “osteoclast formation under RANKL stimulation” value with RAW246.7 cells was “completely inhibits osteoclast formation”. The toxic side effects result in series [1] is recorded as “does not have any observable toxic side effects”. Moreover, the side effects result in series [2] is listed as “no side effects”. Moreover, the new bone formation result with calvariae was “promotes new bone formation”. The osteoclast formation result in series [3] was “inhibits osteoclast formation”. The “osteoclast numbers (TRAP staining) in mouse tibiae” value in series [4] (TM40D-Mp vs TM40D tumor cells) is listed as “significantly decreased osteoclast numbers”. Further, in series [4] (tibiae inoculated with TM40D-Mp vs TM40D tumor cells, 2-week and 4-week time points), the “osteolytic bone degradation (radiography)” value is listed as “inhibits osteolytic bone degradation”. Besides, the “percentage of cells forming strong and clear actin rings” value in series [5] stood at 53%.
